Test [1] has as its target AML1/ETO chimeric fusion protein (UniProt Q01196). Put plainly: cell-based or functional assay.
Test [2] deals with human nuclear receptor co-repressor (HuN-CoR), 2,440 amino-acid polypeptide (human) (UniProt O75376). The test can be described thus: cell-based or functional assay.
Chain of UniProt O75376 (O75376 other isoform, or with tags, fused parts or gaps limits assumed): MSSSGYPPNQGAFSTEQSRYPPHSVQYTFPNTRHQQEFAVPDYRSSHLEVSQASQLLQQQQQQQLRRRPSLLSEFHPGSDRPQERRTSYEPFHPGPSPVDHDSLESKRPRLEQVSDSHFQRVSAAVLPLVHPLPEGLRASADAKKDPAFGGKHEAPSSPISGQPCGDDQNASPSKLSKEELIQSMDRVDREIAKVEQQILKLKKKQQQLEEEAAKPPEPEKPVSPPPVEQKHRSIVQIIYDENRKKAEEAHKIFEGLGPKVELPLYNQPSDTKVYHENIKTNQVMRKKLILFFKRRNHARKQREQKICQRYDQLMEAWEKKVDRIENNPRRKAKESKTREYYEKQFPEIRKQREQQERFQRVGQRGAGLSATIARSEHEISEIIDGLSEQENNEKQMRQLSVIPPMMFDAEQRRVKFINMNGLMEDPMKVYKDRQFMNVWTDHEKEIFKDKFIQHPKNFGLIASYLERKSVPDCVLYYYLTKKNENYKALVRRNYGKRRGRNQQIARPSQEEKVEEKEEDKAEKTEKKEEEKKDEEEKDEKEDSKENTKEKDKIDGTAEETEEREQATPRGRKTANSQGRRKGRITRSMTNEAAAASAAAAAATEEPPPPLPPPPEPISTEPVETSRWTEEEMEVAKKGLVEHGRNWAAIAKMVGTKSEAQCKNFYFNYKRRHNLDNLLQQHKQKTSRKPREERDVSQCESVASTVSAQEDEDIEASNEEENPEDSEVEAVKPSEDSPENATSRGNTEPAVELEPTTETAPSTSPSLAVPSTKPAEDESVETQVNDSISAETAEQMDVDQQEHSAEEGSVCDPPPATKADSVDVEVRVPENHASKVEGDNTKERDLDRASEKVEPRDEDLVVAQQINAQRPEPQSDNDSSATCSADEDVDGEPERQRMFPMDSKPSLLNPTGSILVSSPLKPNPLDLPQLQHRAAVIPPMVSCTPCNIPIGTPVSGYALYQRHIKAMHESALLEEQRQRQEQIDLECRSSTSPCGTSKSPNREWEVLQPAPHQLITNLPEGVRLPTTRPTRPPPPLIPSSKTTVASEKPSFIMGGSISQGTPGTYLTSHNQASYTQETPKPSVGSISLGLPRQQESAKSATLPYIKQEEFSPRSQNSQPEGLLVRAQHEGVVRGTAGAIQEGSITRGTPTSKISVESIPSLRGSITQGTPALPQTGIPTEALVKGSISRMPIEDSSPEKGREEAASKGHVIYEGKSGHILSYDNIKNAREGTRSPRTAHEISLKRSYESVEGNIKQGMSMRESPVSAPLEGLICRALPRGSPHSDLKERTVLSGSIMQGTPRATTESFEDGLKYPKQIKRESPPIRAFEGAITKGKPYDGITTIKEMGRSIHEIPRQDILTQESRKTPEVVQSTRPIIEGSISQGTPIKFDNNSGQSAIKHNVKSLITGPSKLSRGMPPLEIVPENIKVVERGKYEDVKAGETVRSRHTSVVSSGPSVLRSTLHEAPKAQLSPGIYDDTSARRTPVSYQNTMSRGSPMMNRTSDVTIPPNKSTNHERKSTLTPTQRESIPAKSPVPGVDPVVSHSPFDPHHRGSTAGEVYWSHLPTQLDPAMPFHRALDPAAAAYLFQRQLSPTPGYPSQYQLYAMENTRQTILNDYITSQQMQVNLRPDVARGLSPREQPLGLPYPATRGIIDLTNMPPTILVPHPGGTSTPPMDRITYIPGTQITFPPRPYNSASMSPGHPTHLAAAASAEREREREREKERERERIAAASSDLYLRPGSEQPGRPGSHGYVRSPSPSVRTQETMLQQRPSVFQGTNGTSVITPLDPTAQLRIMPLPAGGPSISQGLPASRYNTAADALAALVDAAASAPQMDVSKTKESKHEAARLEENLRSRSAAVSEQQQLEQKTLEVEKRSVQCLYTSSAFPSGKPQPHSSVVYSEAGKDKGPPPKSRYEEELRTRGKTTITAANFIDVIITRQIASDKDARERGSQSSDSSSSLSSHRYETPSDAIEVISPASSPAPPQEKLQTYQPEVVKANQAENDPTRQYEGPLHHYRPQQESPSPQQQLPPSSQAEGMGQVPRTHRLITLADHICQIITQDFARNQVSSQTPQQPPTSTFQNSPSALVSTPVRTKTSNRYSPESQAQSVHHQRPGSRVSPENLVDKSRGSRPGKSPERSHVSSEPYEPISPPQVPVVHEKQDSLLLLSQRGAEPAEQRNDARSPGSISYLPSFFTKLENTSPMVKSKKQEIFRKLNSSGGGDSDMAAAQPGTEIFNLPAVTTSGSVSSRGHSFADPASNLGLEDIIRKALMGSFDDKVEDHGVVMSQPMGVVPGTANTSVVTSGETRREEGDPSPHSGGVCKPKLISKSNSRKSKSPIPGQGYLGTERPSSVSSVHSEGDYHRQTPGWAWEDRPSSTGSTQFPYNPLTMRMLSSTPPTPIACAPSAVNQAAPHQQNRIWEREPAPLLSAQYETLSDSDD

Chain of UniProt Q01196 (Q01196 other isoform, or with tags, fused parts or gaps mutant limits assumed): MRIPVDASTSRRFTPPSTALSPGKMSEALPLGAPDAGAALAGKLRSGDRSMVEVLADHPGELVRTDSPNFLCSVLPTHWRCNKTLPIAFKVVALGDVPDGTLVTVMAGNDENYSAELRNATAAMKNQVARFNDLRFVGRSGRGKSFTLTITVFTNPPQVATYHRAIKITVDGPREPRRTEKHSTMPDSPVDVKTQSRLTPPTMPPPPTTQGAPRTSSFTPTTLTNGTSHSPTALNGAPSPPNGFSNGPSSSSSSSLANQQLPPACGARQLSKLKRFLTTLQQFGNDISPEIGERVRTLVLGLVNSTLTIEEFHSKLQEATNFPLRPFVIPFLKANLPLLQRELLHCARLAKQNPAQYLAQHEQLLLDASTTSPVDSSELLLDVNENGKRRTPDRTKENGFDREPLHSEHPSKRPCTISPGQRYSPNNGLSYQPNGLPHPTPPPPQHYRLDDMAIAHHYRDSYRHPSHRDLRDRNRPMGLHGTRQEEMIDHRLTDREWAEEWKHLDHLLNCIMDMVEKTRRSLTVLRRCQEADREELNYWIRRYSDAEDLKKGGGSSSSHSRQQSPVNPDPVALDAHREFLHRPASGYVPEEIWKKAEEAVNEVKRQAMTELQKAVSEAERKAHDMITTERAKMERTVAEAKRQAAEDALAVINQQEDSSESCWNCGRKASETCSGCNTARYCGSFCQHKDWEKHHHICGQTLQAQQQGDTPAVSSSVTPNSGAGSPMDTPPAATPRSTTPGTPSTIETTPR

In test [1], “ETO-interacting domain of N-CoR (NCoREID) fused with enhanced green fluorescent protein” displayed a transduced Kasumi-1 cells positive for CD13 expression (flow cytometry) of 87% and a transduced Kasumi-1 cells positive for annexin staining (flow cytometry) of 97%.
As to “zinc-finger domains of ETO (ETOZn) fused with enhanced green fluorescent protein (from UniProt Q06455 510-556)”, in test [2], the transduced Kasumi-1 cells positive for CD13 expression (flow cytometry) is 89% and the transduced Kasumi-1 cells positive for annexin staining (flow cytometry) was found to be 97%.
